# Test results reported in article PMC7862292, “Crystal structures of non-oxidative decarboxylases reveal a new mechanism of action with a catalytic dyad and structural twists” (Scientific Reports, 2021).
# Tests used:
# [1] = target: AGDC1 E88A mutant (Arxula adenivorans); test: SEC; Superdex 200 10/300; with (25 mM Tris 7.5, 50 mM KCl, 100 mM NaCl) or without (25 mM Tris 7.5, 100 mM NaCl) potassium; Bio-rad Gel Filtration Standard; all proteins eluted as a single peak
# PPP2 [2] = target: T1, PPP2 (Madurella mycetomatis, UniProt A0A175WC91); test: UV decrease of substrate at […] nm; format: biochemical; conditions: 0.5 mM substrate, 50 mM KPi pH 6.5, RT, 160 ug/ml enzyme; decarboxylation to pyrogallol, weaker than protocatechuic acid
# T1 construct: gene MMYC01_201259; synthetic gene in pET15b, E. coli C41, N-terminal His6 tag removed by thrombin; trimer with central K+; no cobalt site
# [3] = target: Pea Pathogenity Protein (PPP2) from Madurella mycetomatis (Madurella mycetomatis); test: SEC; Superdex 200 10/300; with (25 mM Tris 7.5, 50 mM KCl, 100 mM NaCl) or without (25 mM Tris 7.5, 100 mM NaCl) potassium; Bio-rad Gel Filtration Standard; all proteins eluted as a single peak
# [4] = target: Pea Pathogenity Protein (PPP2) from Madurella mycetomatis (Madurella mycetomatis); test: crystal structure; hanging drop vapor diffusion, protein 10 mg/ml in 20 mM Tris pH 7.5, with or without 5 mM nitrocatechol alone or with 0.5 mM CoCl2; AGDC1 in PEG 3350, 0.2 M potassium salt, MES; PPP2 in PEG 3350, 0.2 M calcium chloride, MES pH 5.5
# AGDC1 = target: T2, AGDC1 (Blastobotrys adeninivorans, UniProt A0A060TAG5); test: UV decrease of gallic acid at […] nm; format: biochemical; conditions: read-out: % inhibition at 0.5 mM
# T2 construct: synthetic gene in pET15b, E. coli C41, N-terminal His6 tag removed by thrombin; trimer with central K+ and peripheral Co2+ sites
# T2 sequence (A0A060TAG5 entry or part of it): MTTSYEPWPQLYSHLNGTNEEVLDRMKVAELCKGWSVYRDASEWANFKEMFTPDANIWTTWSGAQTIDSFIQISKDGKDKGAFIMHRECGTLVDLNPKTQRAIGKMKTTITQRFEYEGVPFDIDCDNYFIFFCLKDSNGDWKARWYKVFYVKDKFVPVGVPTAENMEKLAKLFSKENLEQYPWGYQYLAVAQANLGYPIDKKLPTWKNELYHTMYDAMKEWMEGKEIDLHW
# PPP2 [5] = target: T1, PPP2; test: UV decrease of substrate at […] nm; format: biochemical; conditions: 0.5 mM substrate, 50 mM KPi pH 6.5, RT, 160 ug/ml enzyme; decarboxylation to catechol
# [6] = target: gallic acid decarboxylase AGDC1 from Arxula adenivorans (Arxula adenivorans); test: SEC; Superdex 200 10/300; with (25 mM Tris 7.5, 50 mM KCl, 100 mM NaCl) or without (25 mM Tris 7.5, 100 mM NaCl) potassium; Bio-rad Gel Filtration Standard; all proteins eluted as a single peak
# [7] = target: gallic acid decarboxylase AGDC1 from Arxula adenivorans (Arxula adenivorans); test: crystal structure; hanging drop vapor diffusion, protein 10 mg/ml in 20 mM Tris pH 7.5, with or without 5 mM nitrocatechol alone or with 0.5 mM CoCl2; AGDC1 in PEG 3350, 0.2 M potassium salt, MES; PPP2 in PEG 3350, 0.2 M calcium chloride, MES pH 5.5
compound,measurement,setting,value
AGDC1 E88A mutant (enzyme),stoichiometry N,[1],3
O=C(O)c1cc(O)c(O)c(O)c1 [gallic acid],UV decrease of substrate at 259 nm,PPP2 [2],PPP2 activity with PCA was ~ sevenfold higher than with GA
Pea Pathogenity Protein (PPP2) from Madurella mycetomatis (enzyme),stoichiometry N,[3],3
same,stoichiometry N,[4],3
O=[N+]([O-])c1ccc(O)c(O)c1 [4-nitrocatechol],inhibition at 500 µM,AGDC1,98%
O=C(O)c1ccc(O)c(O)c1 [protocatechuic acid],UV decrease of substrate at 250 nm,PPP2 [5],PPP2 activity with PCA was ~ sevenfold higher than with GA
gallic acid decarboxylase AGDC1 from Arxula adenivorans (enzyme),stoichiometry N,[6],3
same,stoichiometry N,[7],3
